Source: the supplement of paper PMC9732359
± gives the uncertainty stated by the source.

Test: protein stability index of a GFP-peptide fusion (yeast GPS) (PSI 1-4); higher = more stable; sorted into four equal gates, so the index is relative within each strain
In short: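 Mid-log yeast cultures in leucine-free medium, carrying a pooled plasmid library, were sorted into four equal gates by their GFP/Cherry fluorescence ratio. Each plasmid expressed Cherry along with GFP fused upstream of a tiled 17-residue yeast protein peptide. Plasmids recovered from each gate were PCR-amplified and Illumina-sequenced, with reads assigned to strains by barcodes. The protein stability index was obtained by summing each gate's read frequency weighted by its gate number.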

Sequence | protein stability index (doa10∆) | protein stability index (pdr5∆) | protein stability index (san1∆) | protein stability index (ubr1∆)
NTDLKDIIQGNPLMYSG [PCI8] | 2.84 ± 0.051 | 3.13 ± 0.085 | 3.21 ± 0.11 | 3.2 ± 0.086
NTIRQNVTSSGDHNKLR [YML103C/NUP188] | 3.12 ± 0.17 | 3.04 ± 0.16 | 3.21 ± 0.075 | 2.98 ± 0.097
NTLVRPNGTKKAYVRLT [RPL25] |  |  | 3.03 ± 0.17 | 3.35 ± 0.15
NTSAKNKNGENKKIGKR [SIR4] | 3.02 ± 0.27 | 3.19 ± 0.14 | 3.03 ± 0.21 | 
NTSESLLVDIQKYNQIQ [SMC2] | 1.71 ± 0.07 | 1.84 ± 0.066 | 1.66 ± 0.15 | 1.68 ± 0.048
NTSFSFTKPPANETDKR [YOR098C/NUP1] | 3.08 ± 0.075 | 3.11 ± 0.049 | 3.07 ± 0.046 | 3.15 ± 0.045
NTTQDNGGDKELEMIGG [YCS4] | 3.26 ± 0.17 | 3.06 ± 0.17 | 2.46 ± 0.2 | 3.26 ± 0.23
NTTTYKSRPDRPKPVSP [SNF5] | 3.09 ± 0.045 | 3.12 ± 0.05 | 3 ± 0.047 | 2.97 ± 0.042
NVAKNMKTPSLTVYLEP [RPO21] | 3.07 ± 0.1 | 2.86 ± 0.085 | 2.94 ± 0.056 | 3 ± 0.1
NVEPTENAYKSENAPSA [YAR002W/NUP60] | 2.81 ± 0.094 | 3.02 ± 0.12 | 2.29 ± 0.16 | 3.03 ± 0.12
NVFHGLCAGANNPKIQT [IRR1] | 1.59 ± 0.062 | 1.97 ± 0.077 | 1.48 ± 0.086 | 1.56 ± 0.073
NVGKPDQSIASGNTNGA [YOR098C/NUP1] | 3 ± 0.2 | 2.09 ± 0.28 | 2.83 ± 0.085 | 2.93 ± 0.1
NVKEITEKLKISPESVF [SMC3] | 1.7 ± 0.086 | 2.18 ± 0.069 | 2.32 ± 0.13 | 2.04 ± 0.052
NVLDYFAESPFFDKTSN [MED6] | 3.46 ± 0.068 | 2.99 ± 0.085 | 2.87 ± 0.062 | 3.04 ± 0.051
NVNETMSRSLANGIINV [SMC3] | 2.75 ± 0.074 | 2.76 ± 0.061 | 2.96 ± 0.081 | 2.73 ± 0.057
NVPSTKFNAAPEENATE [SNF12] | 3.21 ± 0.067 | 3.35 ± 0.07 | 3.17 ± 0.058 | 3.12 ± 0.055
NVRDDMKPSDNISTNTN [SSN2] | 3.1 ± 0.045 | 2.94 ± 0.049 | 2.88 ± 0.051 | 3.04 ± 0.053
NVRMDTMANILYYPQKP [RPB2] | 2.83 ± 0.11 | 3.23 ± 0.24 | 3.12 ± 0.1 | 2.99 ± 0.1
NVSIVANYIKERTKNAQ [SMC4] | 3.02 ± 0.12 | 3.14 ± 0.065 | 2.91 ± 0.05 | 3.18 ± 0.061
NVSSNIVKNAEQHNLVK [RPS20] | 2.81 ± 0.066 | 3.17 ± 0.057 | 3.26 ± 0.046 | 3.07 ± 0.061
NVTETYSVYLIHEIRLN [SIR3] | 2.59 ± 0.23 | 1.98 ± 0.099 | 2.42 ± 0.14 | 2.37 ± 0.066
NVYRVTVHKTFEGNVAT [PRP8] |  | 3.16 ± 0.23 | 3.23 ± 0.22 | 3.33 ± 0.15
NVYVGMTDMQIQWYKSL [ISW2] | 1.96 ± 0.057 | 2.41 ± 0.059 | 1.99 ± 0.072 | 3.14 ± 0.069
NVYVLPKNLLKKFIEIS [PRP8] | 1.93 ± 0.048 | 2.16 ± 0.045 | 2.06 ± 0.084 | 1.79 ± 0.048
NYDCKVISIVGGHSLEE [PRP28] | 2.93 ± 0.055 | 2.91 ± 0.059 | 2.88 ± 0.042 | 2.83 ± 0.041

Sequence | protein stability index (doa10∆) | protein stability index (pdr5∆) | protein stability index (san1∆) | protein stability index (ubr1∆)
NYDTCGGESAYFFQLQI [RPC11] | 2.72 ± 0.2 | 2.75 ± 0.15 | 2.04 ± 0.14 | 2.94 ± 0.14
NYFVDTDLKKIIKANQL [RET1] | 2.88 ± 0.058 | 2.85 ± 0.066 | 3.01 ± 0.044 | 2.53 ± 0.036
NYIPGNPLVTPASIVPE [COB] | 1.81 ± 0.068 | 2.36 ± 0.071 | 2.42 ± 0.1 | 2.56 ± 0.086
NYIYAGYENGMLAQWDL [RPN14] | 2.92 ± 0.13 | 3.07 ± 0.14 | 3.06 ± 0.1 | 3.14 ± 0.078
NYKGLPKKYKENNTDSA [SMC1] | 3.32 ± 0.07 | 3.31 ± 0.085 | 3.28 ± 0.045 | 3.36 ± 0.061
NYNDLIVNYEDLATTQA [BRN1] | 2.98 ± 0.07 | 3.1 ± 0.087 | 3.34 ± 0.047 | 3.27 ± 0.061
PAGQATQKRTHVLKKNP [RPL4A] | 2.95 ± 0.22 | 3.21 ± 0.21 | 3.28 ± 0.22 | 2.74 ± 0.14
PAITIEKLKQFSWISVV [SIR3] | 1.16 ± 0.05 | 1.45 ± 0.055 | 1.24 ± 0.094 | 1.13 ± 0.035
PAKVEDVQKSSDSSSED [YLR335W/NUP2] | 2.84 ± 0.1 | 2.41 ± 0.097 | 2.4 ± 0.11 | 1.65 ± 0.053
PALIRPGRIDRKILFEN [RPT2] |  | 2.21 ± 0.16 | 2.12 ± 0.2 | 2.58 ± 0.17
PAVKQWDLLPEPIRFLP [SWI1] | 2.28 ± 0.058 | 2.27 ± 0.069 | 2.33 ± 0.055 | 2.53 ± 0.072
PDAKIQVRRDIPSAAFN [YMR129W/POM152] | 2.17 ± 0.061 | 1.89 ± 0.098 | 1.63 ± 0.11 | 3.24 ± 0.088
PDELIKAGVEAISQSLR [PRE5] | 2.83 ± 0.14 | 2.91 ± 0.15 |  | 1.49 ± 0.051
PEESKGSFKYITARSAF [SWP82] | 2.85 ± 0.068 | 3.04 ± 0.076 | 3.1 ± 0.053 | 3.15 ± 0.06
PEESKPINLQNGEEDEV [YLR335W/NUP2] | 2.9 ± 0.075 | 2.92 ± 0.077 | 3.1 ± 0.046 | 3.1 ± 0.062
PEGTLSGGSRNTSESLL [SMC2] | 3.4 ± 0.2 | 3.29 ± 0.15 | 3.44 ± 0.13 | 3.28 ± 0.25
PEIPLVVSTDLESIQKT [RPL4A] | 2.96 ± 0.071 | 3.05 ± 0.086 | 3.16 ± 0.052 | 2.81 ± 0.062
PEKKEMIQEVIVEEDLE [FAS2] | 3.14 ± 0.077 | 3.31 ± 0.089 | 3.35 ± 0.045 | 3.36 ± 0.062
PEKTSTELVDGRENFVY [SIR3] | 3.08 ± 0.099 | 3.25 ± 0.15 | 3.1 ± 0.12 | 3 ± 0.088
PEMIKRSLLLSRVRADD [RRP43] | 2.87 ± 0.2 | 3.63 ± 0.17 |  | 2.92 ± 0.16
PENTAMFNPLHESYCLP [YMR129W/POM152] | 2.44 ± 0.043 | 2.66 ± 0.042 | 2.66 ± 0.037 | 2.6 ± 0.03
PESQGQHEQQKQQEQLE [YMR153W/NUP53] | 3.4 ± 0.083 | 3.37 ± 0.066 | 3.24 ± 0.06 | 3.26 ± 0.072
PEYEKAMQYVCGDSIIC [SMC1] | 1.7 ± 0.1 | 2.27 ± 0.17 | 1.88 ± 0.14 | 1.89 ± 0.1
PFDNSTEEKCKNFIESE [YJL039C/NUP192] | 3.27 ± 0.14 | 3.39 ± 0.16 | 3.22 ± 0.096 | 3.32 ± 0.1
